These results are taken from patent US20250122306A1 (SUTRO BIOPHARMA, published 2025).

Changes are numbered by the printed parent chain.

The target in assay [1] is T1, human tissue factor (human TF, Lake Pharma) (human, UniProt P13726 33-251, limits assumed).
T1 construct: bought recombinant antigen; also called CD142
Nature of the assay: Biacore SPR, single-point off-rate (100 nM antigen), antibody captured on anti-Fc. (SPR reads the build-up and loss of mass on a sensor chip optically.)

Assay [2] has as its target T2, cynomolgus tissue factor (cynomolgus TF, Sino Bio #90885-C08H) (cynomolgus monkey, UniProt P13726 33-251 (human entry)).
T2 construct: bought recombinant antigen; also called cyno TF
T2 chain: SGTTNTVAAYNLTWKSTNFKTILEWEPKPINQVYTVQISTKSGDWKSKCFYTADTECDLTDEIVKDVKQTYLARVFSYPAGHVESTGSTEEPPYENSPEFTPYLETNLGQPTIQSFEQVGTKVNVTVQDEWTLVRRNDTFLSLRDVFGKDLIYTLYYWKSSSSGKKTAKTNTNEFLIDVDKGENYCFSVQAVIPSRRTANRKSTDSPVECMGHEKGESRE
Described as above.

In assay [3] the target is T3, human tissue factor on cells (human, UniProt P13726 33-295).
T3 construct: cell-surface TF, transfected (HEK293T-humanTF) or endogenous (tumour lines, keratinocytes); the cell line is named under assay; also called HEK293T-humanTF; TF on BxPC3, primary human keratinocytes, NCI-H292, HCC1954, NCI-H1975
Nature of the assay: flow cytometry on BxPC3 cells (TF positive), one-site fit of MFI. The source says: (§1) HEK293T, BxPC3 cells (TF positive) and NCI-H1703 (TF negative) cells were obtained from ATCC (American Type Culture Collection) and maintained in DMEM: F12 (1:1), high glucose (Corning) supplemented with 10% heat-inactivated fetal bovine serum (ThermoScientific), 1× Penicillin/Streptomycin (Corning) and 2 mmol glutamax (Thermo Fisher Scientific). To generate cells that stably expressing human tissue factor (HEK293T-humanTF) or cynomolgus tissue factor (HEK293T-cynoTF), HEK293T cells were transfected with plasmid vectors that contain the corresponding protein sequence and stable clones were selected with puromycin.
(§2) For a fluorescence-activated cell sorting (FACS) cell-binding assay, cells were collected by Accutase and counted by the Vi-CELL Cell Viability Analyzersharvested and, then re-suspended in FACS buffer (DPBS buffer supplemented with 1% bovine serum albumin). A total of 200,000 cells in 100 μL were incubated on ice with 100 μL of anti-TF antibodies in each well of a 96-well plate. Cells were washed twice with ice-cold FACS buffer and then incubated on ice for 60 mins with 5 μg/mL Alexa 647-labeled donkey anti-human Fc antibody (Jackson ImmunoResearch). Unstained cells and cells stained with secondary antibody alone were used as controls. Cells were washed twice with FACS buffer and analyzed using a BD FACS Canto system. Geometric mean fluorescence intensities (MFI) were fitted using non-linear regression analysis with one site specific binding equation on GraphPad Prism (GraphPad Software; La Jolla, CA).
A general note: In flow cytometry, cells or beads pass a laser one at a time.

Assay [4] deals with tissue factor reagent of the Tissue Factor Activity Assay Kit (Abcam #ab108906) (UniProt P13726 33-295, limits assumed). As to the kind of experiment: cell-based or functional assay.
The target in assay [5] is T1, human tissue factor (human TF, Lake …). As to the kind of experiment: Biacore SPR kinetics, antibody captured on anti-Fc, 1:1 Langmuir fit. The procedure:
(§3) Anti-Fc polyclonal antibodies were immobilized onto a CM4 chip (Cytiva #BR100534) using amine coupling chemistry (Human Antibody Capture Kit, Cytiva #BR100839). The immobilization steps were carried out at a flow rate of 25 μL/min in 1×HBS-EP+buffer (Cytiva #BR100669). The sensor surfaces were activated for 7 min with a mixture of N-hydroxysuccinimide (NHS, 0.05 M) and 1-ethyl-3-(3-dimethylaminopropyl)-carbodiimide (EDC, 0.2 M). The anti-Fc polyclonal antibodies were injected over all 4 flow cells at a concentration of 25 μg/mL in 10 mM sodium acetate, pH 4.5, for 7 min. Ethanolamine (1 M, pH 8.5) was injected for 7 min to block any remaining activated groups.
(§4) Off-rate and kinetic binding experiments were performed at 25° C. using 1×HBS-EP+buffer. Antibodies were injected over the anti-Fc surface at a concentration of 3 μg/mL for 12 seconds at a flow rate of 10 μL/min on flow cells 2, 3 and 4, followed by a buffer wash for 30 seconds at the same flow rate. Single point off-rate analysis was carried out using an antigen concentration of 100 nM. […] After capturing ligand (antibody) on the anti-Fc surface, the analyte (human TF, Lake Pharma; cynomolgus TF, Sino Bio #90885-C08H; mouse TF, R&D Systems #3178-PA) was bound for 180 seconds, followed by a 420 second dissociation phase at a flow rate of […]. Between each ligand capture and analyte binding cycle, regeneration was carried out using 2 injections of 10 mM glycine pH 2.0 for 30 seconds at 30 μL/min, followed by a 30 second buffer wash step.
(§5) The data were fit with the Biacore T200 Evaluation software, using a 1:1 Langmuir binding model. KD (affinity, nM) was determined as a ratio of the kinetic rate constants calculated from the fits of the association and dissociation phases.

Assay [6] concerns the target T2, cynomolgus tissue factor (cynomolgus …). The description is as above. The procedure: as §3, §4, §5
In assay [7] the target is T3, human tissue factor on cells. As to the kind of experiment: flow cytometry on primary human keratinocytes, one-site fit of MFI. The procedure: To evaluate antibody binding activity of the anti-TF antibodies on the adult primary keratinocytes, a total of 100,000 keratinocytes per well were incubated on ice with serial dilutions of anti-TF antibodies in FACS buffer (PBS buffer supplemented with 1% bovine serum albumin, 0.05% sodium azide) for 60 minutes. Cells were washed twice with ice-cold FACS buffer and then incubated with 5 microgram/mL Alexa 647 labeled donkey anti-human Fc antibody (Jackson ImmunoResearch, West Grove, PA) on ice for another 60 minutes. Unstained cells and cells stained with secondary antibodies alone were used as controls. Samples were then washed twice using FACS buffer and analyzed using an Attune flow cytometer (Thermo Fisher). Geometric mean fluorescence intensities were fitted using non-linear regression analysis with one site specific binding equation on GraphPad Prism.

For assay [8], the target named is T4, cynomolgus tissue factor on HEK293T-cynoTF cells (cynomolgus monkey, UniProt P13726 33-294 (human entry)).
T4 construct: stably transfected HEK293T cells
T4 chain: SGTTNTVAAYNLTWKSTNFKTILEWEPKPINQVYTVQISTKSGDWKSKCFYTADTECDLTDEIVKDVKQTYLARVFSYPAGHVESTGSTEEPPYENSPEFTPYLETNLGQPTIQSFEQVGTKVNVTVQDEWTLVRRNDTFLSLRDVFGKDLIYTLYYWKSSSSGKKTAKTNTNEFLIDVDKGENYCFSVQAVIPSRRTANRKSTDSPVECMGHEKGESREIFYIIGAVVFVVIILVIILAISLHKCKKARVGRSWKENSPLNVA
As to the kind of experiment: flow cytometry on HEK293T-cynoTF cells, one-site fit of MFI.
Source text: as §1, §2

The target in assay [9] is T3, human tissue factor on cells. Nature of the assay: flow cytometry on HEK293T-humanTF cells, one-site fit of MFI.
Source text: as §1, §2

The target in assay [10] is T1, human tissue factor (human TF, Lake …). As to the kind of experiment: Biacore SPR kinetics, ADC captured on anti-Fc, 1:1 Langmuir fit. The procedure: (§6) Anti-Fc polyclonal antibodies were immobilized onto a CM4 chip (Cytiva #BR100534) using amine coupling chemistry (Human Antibody Capture Kit, Cytiva #BR100839). The immobilization steps were carried out at a flow rate of […] in 1×HBS-EP+buffer (Cytiva #BR100669). The sensor surfaces were activated for 7 min with a mixture of NHS (0.05 M) and EDC (0.2 M). The Anti-Fc antibodies were injected over all 4 flow cells at a concentration of 25 μg/ml in 10 mM sodium acetate, pH 4.5, for 7 min. Ethanolamine (1 M, pH 8.5) was injected for 7 min to block any remaining activated groups. […] Off-rate and kinetic binding experiments were performed at 25° C. using 1×HBS-EP+buffer. Antibodies or ADCs were injected over the anti-Fc surface at a concentration of 3 μg/mL for 12 seconds at a flow rate of 10 μL/min on flow cells 2, 3 and 4, followed by a buffer wash for 30 seconds at the same flow rate. […] After capturing ligand (antibody) on the anti-Fc surface, the analyte (human TF, Lake Pharma; cynomolgus TF, Sino Bio #90885-C08H; mouse TF, R&D Systems #3178-PA) was bound for 180 seconds, followed by a 420 second dissociation phase at a flow rate of 50 μL/min. Between each ligand capture and analyte binding cycle, regeneration was carried out using 2 injections of 10 mM Glycine pH 2.0 for 30 seconds at 30 μL/min, followed by a 30 second buffer wash step. The data was fit with the Biacore T200 Evaluation software, using a 1-1 Langmuir binding model. KD (affinity, nM) was determined as a ratio of the kinetic rate constants calculated from the fits of the association and dissociation phases.

The target of assay [11] is T2, cynomolgus tissue factor (cynomolgus …). The assay is described as above. The procedure: as §6

Sequence of tissue factor reagent of the Tissue Factor Activity Assay Kit (Abcam #ab108906) (P13726 33-295 limits assumed): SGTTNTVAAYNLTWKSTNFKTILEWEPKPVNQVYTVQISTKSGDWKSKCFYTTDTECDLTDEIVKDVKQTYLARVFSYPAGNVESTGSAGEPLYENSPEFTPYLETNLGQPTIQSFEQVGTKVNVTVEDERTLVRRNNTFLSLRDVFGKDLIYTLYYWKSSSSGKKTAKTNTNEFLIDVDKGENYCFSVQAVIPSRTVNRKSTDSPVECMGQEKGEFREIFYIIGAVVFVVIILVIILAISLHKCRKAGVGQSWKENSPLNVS

B1: SRP2901-B05 (antibody, V domains shown)
VH: QVQVQESGPGLVKPPGTLSLTCAVSGFSLSYYGVSWVRQPPGKGLEWIGTIDSSGRTYYNPSLKSRVTISNDNAPNTVSLKLSSVTAADTAVYYCARDFYGWNSGALDIWGQGTLVTVSS
VL: DLQLTQSPSTLSASVGDRVTITCRASQSVYSNKYLSWYQQKPGKAPKLLIYKASTLASGVPSRFSGSGSGTEFTLTISSLQPDDFATYYCAAAYSDDSDTAFGQGTKVEIK
notes: humanized rabbit antibody, variable regions fused to human IGHG1 and IGKC; also called 2842-G04 HC2/LC2
In general, koff refers to a measure of how fast the partners let go of each other. The low end stands for a long-lived complex, the high end for a short-lived complex. For orientation: Kd means a measure of binding affinity in units of concentration. Molecule B1 registered a koff in [1] of 0.000736 s⁻¹. This molecule yielded a koff in [2] of 0.0017 s⁻¹. For the same molecule, in [3], the “Bmax (MFI)” value was 42800 MFI and the affinity, expressed as Kd, was 0.389 nM. Besides, in assay [4], the “FX conversion (% inhibition), 1000 nM antibody” value (from here on “FX conversion (% inhibition)”) was 0.62%.

B2: SRP2901-F01 (antibody, V domains shown)
VH: QVQVVESGGGLVKPGGSLRLSCAASGFSISSYDMSWIRQAPGKGLEWIGIIGSNGRTYYADSVKGRFTISRNTNENTVYLQMNSLRAEDTAVYYCARGLYDGTGNIWGQGTLVTVSS
VL: DIQMTQSPSSLSASVGDRVTITCQASQSVYGNNWLSWYQQKPGKAPKLLIYGASKLASGVPSRFSGSGSGTDFTLTISSLQPEDFATYYCQGTYYSGDWYFAFGGGTKVEIK
notes: humanized rabbit antibody, variable regions fused to human IGHG1 and IGKC; also called 2842-B01 HC1/LC3
With B2, the koff in assay [1] is 0.00054 s⁻¹. This molecule had a koff in [2] of 0.00117 s⁻¹. Also, in [3], the “Bmax (MFI)” value was determined as 25400 MFI and the Kd was found to be 0.61 nM. For the same molecule, the “FX conversion (% inhibition)” value in assay [4] was determined as 0.77%.

B3: mAb 37: aTF_2842-B01_Hc3_Y180/F404TAG pAzMeF; aTF_2842-B01_Lc2 (antibody, IgG1, V domains shown)
VH: B2 VH with Q1E, V4L, K13Q, I37V, A60P, N72D, T73N, N74S, E75K, Y79T
VL: ELVMTQSPPTLSLSPGERVTLSCRASQSVYGNNWLSWYQQKPGQAPRLLIYGASKLATSIPARFSGSGSGTQFTLTISSLQPEDFAVYYCQGTYYSGDWYFAFGQGTKVEIKR
modifications: pAzMeF at Y180 and F404 (EU), * in the sequence
notes: unconjugated full-length IgG1/kappa, cell-free expressed; also called 2842-B01 HC3/LC2; 2842-B01-HC3/LC2 Y180/F404
Usually kon stands for the rate constant with which the complex forms. For B3, the Kd came out at 7.3 nM in assay [5]; 15.6 nM in [6]; 24 nM in assay [7]; 3.9 nM in [8]; 3.9 nM in [9]. In addition, the dissociation rate constant (koff) in assay [5] is 0.000418 s⁻¹; in assay [6] it was 0.00113 s⁻¹. The kon in assay [5] is 57200 M⁻¹ s⁻¹; in assay [6], 72400 M⁻¹ s⁻¹. Further, the “Bmax (MFI)” value in assay [8] turned out to be 493000 MFI; in assay [9], 334000 MFI.

B4: SRP2901-E03 (antibody, V domains shown)
VH: B2 VH with Q1E, V4L, K13Q, I37V, A60P, N72D, T73N, N74S, E75K, Y79T
VL: ELVMTQSPPTLSLSPGERVTLSCRASQSVYGNNWLSWYQQKPGQAPRLLIYGASKLATSIPARFSGSGSGTQFTLTISSLQPEDFAVYYCQGTYYSGDWYFAFGQGTKVEIK
notes: humanized rabbit antibody, variable regions fused to human IGHG1 and IGKC; also called 2842-B01 HC3/LC2
In the case of B4, in assay [1], the koff was 0.000361 s⁻¹. Also, the koff in [2] came to 0.000782 s⁻¹. Also, in assay [3], the “Bmax (MFI)” value was determined as 35200 MFI and the Kd came to 0.386 nM. Besides, the “FX conversion (% inhibition)” value in assay [4] is -0.84%.

B5: Conjugate 7: 2900-A02 F241/F404 LP2 (antibody, human IgG1, kappa)
heavy: MEVQLVESGGGLVQPGGSLRLSCAASGFTISGYIIHWVRQAPGKGLEWVGYIDPSNGYTYYADSVKGRFTISADTSKNTAYLQMNSLRAEDTAVYYCARDDQSLSSPFDYWGQGTLVTVSSASTKGPSVFPLAPSSKSTSGGTAALGCLVKDYFPEPVTVSWNSGALTSGVHTFPAVLQSSGLYSLSSVVTVPSSSLGTQTYICNVNHKPSNTKVDKKVEPKSCDKTHTCPPCPAPELLGGPSVLFPPKPKDTLMISRTPEVTCVVVDVSHEDPEVKFNWYVDGVEVHNAKTKPREEQYNSTYRVVSVLTVLHQDWLNGKEYKCKVSNKALPAPIEKTISKAKGQPREPQVYTLPPSREEMTKNQVSLTCLVKGFYPSDIAVEWESNGQPENNYKTTPPVLDSDGSFLYSKLTVDKSRWQQGNVFSCSVMHEALHNHYTQKSLSLSPGK
light: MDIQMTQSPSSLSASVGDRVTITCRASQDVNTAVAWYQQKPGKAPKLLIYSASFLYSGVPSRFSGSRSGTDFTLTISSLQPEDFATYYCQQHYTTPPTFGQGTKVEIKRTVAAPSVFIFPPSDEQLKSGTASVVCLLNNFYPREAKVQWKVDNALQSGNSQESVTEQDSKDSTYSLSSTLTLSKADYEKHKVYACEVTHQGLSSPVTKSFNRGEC
modifications: pAMF at F241 and F404 (EU), each linked to LP2 (DBCO-beta-Glucuronide-PEG12-Exatecan)
notes: antibody-drug conjugate, DAR about 4; also called Trastuzumab LC SerOpt
With B5, in assay [10], the equilibrium dissociation constant (Kd) was found to be 4.11 nM, the dissociation rate constant (koff) stood at 0.00209 s⁻¹ and the kon came out at 508000 M⁻¹ s⁻¹. In [11], the Kd stood at 1.77 nM, the koff stood at 0.00103 s⁻¹ and the kon was determined as 582000 M⁻¹ s⁻¹.
